Experimental data reported in patent US20200057047A1 (NATIONAL HEALTH RESEARCH INSTITUTES, published 2020).

Target: T1, Myc-tagged IQGAP1 (wild type) (Homo sapiens (Human), UniProt P46940 1-1657, phosphoserine at 480 where phosphorylated by GLK, as the filing reports)
T1 construct: the same molecule is used here; also called Myc-IQGAP1; IQGAP1 WT; not shown: Myc tag
Assay: co-IP of anti-Flag immunocomplexes, HEK293T cells treated with 25 µM pervanadate (FIG. 18E)
Protocol: (A) Silver-stained gel of anti-Flag immunoprecipitates from HEK293T cells transfected with empty vector or Flag-tagged GLK in the presence or absence of the tyrosine phosphatase inhibitor pervanadate (25 μM). Arrows indicate the positions of GLK or GLK-interacting proteins. (B) Four pervanadate-induced tyrosine phosphorylation residues of GLK proteins were listed. (C and D) Co-immunoprecipitation of anti-Flag (C) or anti-Myc (D) immunocomplexes from lysates of HEK293T cells transfected with Flag-tagged GLK, Myc-tagged IQGAP1, or both plasmids. The whole-cell lysate immunoblots before immunoprecipitation (Pre-IP) are shown at the bottom of each panel. β-Tubulin was used as the loading control. (E) Co-immunoprecipitation of anti-Flag immunocomplexes from lysates of HEK293T cells transfected with either Flag-tagged GLK or Flag-tagged GLK mutant (Y366F, Y379F, Y574F, or Y735F). HEK293T cells were treated with 25 μM pervanadate for 2 h (F) In situ PI A of HEK293T cells transfected with empty vector, 3× Flag-tagged GLK, Myc-tagged IQGAP1, or GLK together with IQGAP1 plasmids. Arrows indicate the PLA signals (red spots). Original magnification, ×40. Scale bar, 10 μm. (G) The relative PLA signal of each group per field is shown on the plot. (H) FRET assays of HEK293T cells transfected with the indicated plasmids encoding CFP- and YFP-fused GLK and IQGAP1 proteins. […]

T1 sequence (P46940 whole entry): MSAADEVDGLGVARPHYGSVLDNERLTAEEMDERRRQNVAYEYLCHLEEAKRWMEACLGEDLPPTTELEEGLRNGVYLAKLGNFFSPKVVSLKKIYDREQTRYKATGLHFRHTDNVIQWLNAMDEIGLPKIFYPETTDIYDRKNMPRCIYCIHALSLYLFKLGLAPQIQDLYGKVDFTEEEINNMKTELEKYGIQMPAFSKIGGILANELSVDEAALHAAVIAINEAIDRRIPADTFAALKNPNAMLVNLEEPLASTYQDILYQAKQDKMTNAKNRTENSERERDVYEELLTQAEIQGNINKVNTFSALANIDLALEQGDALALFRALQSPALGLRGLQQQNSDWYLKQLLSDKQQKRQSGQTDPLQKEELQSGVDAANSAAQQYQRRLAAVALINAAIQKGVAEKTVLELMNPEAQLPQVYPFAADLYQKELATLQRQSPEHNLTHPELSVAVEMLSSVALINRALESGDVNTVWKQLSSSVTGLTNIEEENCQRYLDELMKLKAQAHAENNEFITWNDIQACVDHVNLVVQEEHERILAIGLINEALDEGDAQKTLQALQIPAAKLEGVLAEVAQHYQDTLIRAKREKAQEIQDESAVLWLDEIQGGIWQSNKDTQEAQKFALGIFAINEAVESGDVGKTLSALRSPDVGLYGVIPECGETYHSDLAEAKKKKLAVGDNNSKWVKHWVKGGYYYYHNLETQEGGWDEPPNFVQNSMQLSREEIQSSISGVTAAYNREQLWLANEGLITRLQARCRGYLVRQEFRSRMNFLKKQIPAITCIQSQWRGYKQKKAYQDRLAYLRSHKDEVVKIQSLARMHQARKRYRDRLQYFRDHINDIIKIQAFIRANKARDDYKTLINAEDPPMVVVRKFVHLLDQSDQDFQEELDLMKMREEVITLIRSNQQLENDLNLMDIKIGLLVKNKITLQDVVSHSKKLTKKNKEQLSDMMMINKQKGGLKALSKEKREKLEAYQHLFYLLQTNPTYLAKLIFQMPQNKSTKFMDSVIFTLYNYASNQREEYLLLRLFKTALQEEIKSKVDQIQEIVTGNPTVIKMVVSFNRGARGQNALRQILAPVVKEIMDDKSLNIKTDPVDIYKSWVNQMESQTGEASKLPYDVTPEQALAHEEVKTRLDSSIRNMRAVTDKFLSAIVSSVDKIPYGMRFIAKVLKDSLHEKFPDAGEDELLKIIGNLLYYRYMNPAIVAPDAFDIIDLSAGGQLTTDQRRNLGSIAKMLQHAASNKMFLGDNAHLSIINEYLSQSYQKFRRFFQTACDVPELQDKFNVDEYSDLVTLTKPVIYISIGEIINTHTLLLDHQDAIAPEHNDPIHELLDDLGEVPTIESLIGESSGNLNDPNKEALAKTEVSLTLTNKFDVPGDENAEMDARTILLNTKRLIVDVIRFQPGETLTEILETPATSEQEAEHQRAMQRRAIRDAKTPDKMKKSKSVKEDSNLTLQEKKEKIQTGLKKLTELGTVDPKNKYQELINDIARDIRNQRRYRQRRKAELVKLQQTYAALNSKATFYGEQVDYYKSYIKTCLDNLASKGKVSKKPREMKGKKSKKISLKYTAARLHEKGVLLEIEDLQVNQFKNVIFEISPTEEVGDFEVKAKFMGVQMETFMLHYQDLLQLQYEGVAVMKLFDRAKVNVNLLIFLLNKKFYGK

binding result: no binding
B1: Flag-tagged GLK (Y735F) mutant (enzyme)
chain: DYKDDDDKMNPGFDLSRRNPQEDFELIQRIGSGTYGDVYKARNVNTGELAAIKVIKLEPGEDFAVVQQEIIMMKDCKHPNIVAYFGSYLRRDKLWICMEFCGGGSLQDIYHVTGPLSELQIAYVSRETLQGLYYLHSKGKMHRDIKGANILLTDNGHVKLADFGVSAQITATIAKRKSFIGTPYWMAPEVAAVERKGGYNQLCDLWAVGITAIELAELQPPMFDLHPMRALFLMTKSNFQPPKLKDKMKWSNSFHHFVKMALTKNPKKRPTAEKLLQHPFVTQHLTRSLAIELLDKVNNPDHSTYHDFDDDDPEPLVAVPHRIHSTSRNVREEKTRSEITFGQVKFDPPLRKETEPHHELPDSDGFLDSSEEIYYTARSNLDLQLEYGQGHQGGYFLGANKSLLKSVEEELHQRGHVAHLEDDEGDDDESKHSTLKAKIPPPLPPKPKSIFIPQEMHSTEDENQGTIKRCPMSGSPAKPSQVPPRPPPPRLPPHKPVALGNGMSSFQLNGERDGSLCQQQNEHRGTNLSRKEKKDVPKPISNGLPPTPKVHMGACFSKVFNGCPLKIHCASSWINPDTRDQYLIFGAEEGIYTLNLNELHETSMEQLFPRRCTWLYVMNNCLLSISGKASQLYSHNLPGLFDYARQMQKLPVAIPAHKLPDRILPRKFSVSAKIPETKWCQKCCVVRNPYTGHKYLCGALQTSIVLLEWVEPMQKFMLIKHIDFPIPCPLRMFEMLVVPEQEFPLVCVGVSRGRDFNQVVRFETVNPNSTSSWFTESDTPQTNVTHVTQLERDTILVCLDCCIKIVNLQGRLKSSRKLSSELTFDFQIESIVCLQDSVLAFWKHGMQGRSFRSNEVTQEISDSTRIFRLLGSDRVVVLESRPTDNPTANSNLYILAGHENSY
